Data on one substance can be found in US20110294740A1.

The assay deals with Dutch/Iowa CAA double mutant Aβ40 (UniProt P05067). The assay is described as follows: SPR, Aβ peptide immobilised, MBP as analyte.
Sequence of Dutch/Iowa CAA double mutant Aβ40 (P05067 672-711, change not shown): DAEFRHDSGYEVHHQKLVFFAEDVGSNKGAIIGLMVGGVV

Sequence of myelin basic protein (purified MBP) (P02686 135-304 limits assumed): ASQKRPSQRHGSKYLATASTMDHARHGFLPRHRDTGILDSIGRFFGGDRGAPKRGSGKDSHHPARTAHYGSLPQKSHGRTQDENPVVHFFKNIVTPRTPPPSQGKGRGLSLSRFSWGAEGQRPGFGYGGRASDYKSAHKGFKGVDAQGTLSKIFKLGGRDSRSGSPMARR

For “myelin basic protein (purified MBP) (from UniProt P02686 2-171)”, the Kd amounted to 16.9 nM.
